{
  "source": "the DeepSol protein solubility set",
  "data": [
    {"assay": "soluble on expression in E. coli; label from the status in PepcDB or PDB records", "values": [
      {"sequence": "MRLLILGGTGDAAELSAKVATIPGIEAIASLAGRTREPSLPSGNVRVGGFGGAAGLADYLRQMQVDVLIDATHPFAAQISENAALAADEVEIPRLMLIRPPWVKVAGDRWIEVDTTSAAAAILKNQAKRVFLTVGRQELSAFAHLHDIWFLMRMIDPPAADALVPPGVILCDRGPFTLPQERDILIQHNIDTLVSKNSGGDATYAKIIAARELGVQVVMVNRPVVPACEQVTDADAAVAWLLEK", "soluble on expression in E. coli": "not soluble"},
      {"sequence": "MEIIHLSEIDSTNDYAKELAKEGKRNFIVLADKQNNGKGRWGRVWYSDEGGLYFSMVLDSKLYNPKVINLLVPICIIEVLKNYVDKELGLKFPNDIMVKVNDNYKKLGGILTELTDDYMIIGIGINVNNQIRNEIREIAISLKEITGKELDKVEILSNFLKTFESYLEKLKNKEIDDYEILKKYKKYSITIGKQVKILLSNNEIITGKVYDIDFDGIVLGTEKGIERIPSGICIHVR", "soluble on expression in E. coli": "soluble"},
      {"sequence": "MTLRCSDVNVEPLPGTAKTGSGFVLLEHAGSWSRDVLDGGTFDPELTDQLKRHLKASGMGLQLIRKPGREGRNVEKHNLFLVFAEASIIEHLVVDAPADVLDLDLSGPGKNNAQRMDDPMLLICTHSKRDVCCAIKGRPLAAAVEPQFGPLHVWEASHTKGHRFAPSMLLMPWNYSYGLLDEAETVQLFQGALDNKLFLPGNRGRGTLDARGQVAEIAVAEAFGEAVAPASLQVEFEDDSVLVTHPDGRTWVVELERIEVDGVVSSCGDQPKTGKAWVARQVTELIG", "soluble on expression in E. coli": "not soluble"},
      {"sequence": "MASKIEQPRWASKDSAAGAASTPDEKIVLEFMDALTSNDAAKLIEYFAEDTMYQNMPLPPAYGRDAVEQTLAGLFTVMSIDAVETFHIGSSNGLVYTERVDVLRALPTGKSYNLSILGVFQLTEGKITGWRDYFDLREFEEAVDLPLRG", "soluble on expression in E. coli": "soluble"},
      {"sequence": "MRLLLFRQRNFRNLALEAYRPPPGLSALVGANAQGKTSLLLGIHLALGGEVPLGLADLVRFGEEEAWLHAEVETELGAYRLEHRLGPGGREVLLNGKRVSLRTLWELPGSVLVSPLDLEAVLGPKEERRAYLDRLIARFSRRYAALLSAYEKALRQRNALLKAGGEGLSAWDRELARYGDEIVALRRRFLRRFAPILREVHAALAAKEAGLRLEETAGEGVLRALEASRAEERERGQTLVGPHRDDLVFLLEGRPAHRFASRGEAKTLALALRLAEHRLLGEHHGEPPLLLVDEWGEELDEARRRAVLAYAQALPQAILAGLEAPPGVPVCSVVRGVVLCPGA", "soluble on expression in E. coli": "soluble"},
      {"sequence": "MGSDKIHHHHHHMTSVSPHKKAKALKPTSRRPAKELCSECGLCDTYYIHYVKEACAFINQQIGELEVETHTRSRHLDNPDELYFGVHQDMIAARKQQPIEGAQWTGIVSSIAIEMLNRGLVEGVVCVQNTKEDRFQPMPIIARTPEEILAARVNKPTLSPNLSVLEQIEKSGMKRLLVIGVGCQIQALRAVEKQLGLEKLYVLGTPCVDNVNRAGLQKFLETTSRSPETVVHYEFMQDFRVHFKHEDGSSETVPFFGLKTNKLKDVFAPSCMSCFDYVNSLADLVVGYMGAPFGWQWIVVRNDTGKEMLDLVQDQLDTQPVTSKGNRKEAVQQSIPAYDKGVTLPMWAAKLMGVVIEKIGPKGLEYARFSIDSHFTRNYLYVKRNHPEKLEAHVPEFAKRIVEQYKLPE", "soluble on expression in E. coli": "not soluble"},
      {"sequence": "MAHIVQTHKLTLHDVAIDQALVYSSDSNCAELKRTFQVELAHGYNEVKVQNLPFDLVQDSIRVSGAGEAVIHDVSVKNQEGAEFVIPERVLAIKAIFEEKERAKDKVADSRVAVQKRIEGLDNLITEVAKHGKDGAFHFDGRTIESLNALHGFHQDTTVDLRAQIRTLDQDLRKAEEEYARASQDYDNTGYRWRNSAQYASIIVESEAGGAAQLTITYQVNNVSWTPFYDIRVTAGVEAEMHVTYFGKVRQYSGEDWKTVPLVLSTARPAHGVKQLPKLGALEASIVVPEPECNRGGRGGYGGGYAQDSVVMACAAPMMEMGRSRKSMKMSYAAVKSSNIASEFSIGRPATIDDRTDEYKVNIGQFTLDTKLSNVTVPSRNATAFLVANSVNTSDYPLVAGQASIFLDGAFVNKTEFEDAVVSQKFEVSLGVDPNIRIEYKPVRNYQEQSGTVEKINSQVTEKTTAVTNLRPNSVLLTIREQLPRSTDSRIKVHLNTPEAVEVDEASVEPTVGAAITPEKILDYTVQLAPGQSSTFVVKYTTEHPQAEQIRYEEKF", "soluble on expression in E. coli": "not soluble"},
      {"sequence": "MKVYEFGKKENPAIMLLPGTCCHWKNNFSNVIDLLIEDFFVVCVSYDGFDETEKSEFQDMVTEVRKIENYINERFQGKIHAVYGCSLGG", "soluble on expression in E. coli": "not soluble"},
      {"sequence": "MSLEKKMEEKKKIKLIATDMDGTLVNDAKEVPASFAPWVLSHPDQQMVIASGRPYYTNEELFKEIKDHLIFIGDNGGLIYQQGQVLAKAGITAEEAKFCLDLFKDEPLANPILCGASQAICHDPKGDRNFLKQLDTYYIKRRYVEDLEAEVNSDEIIKFTVYIEGGAAESIYRQLPEMPGNLSAVLAGPEWIDIVNKDANKGAAVKKIADLKGIKQDEILAFGDYLNDLTMLEAAGTSYAMVNGHPDLKKIADHIAPSNNDEGVMQILRKLFDEGHHHHHH", "soluble on expression in E. coli": "soluble"},
      {"sequence": "MAHHHHHHMVFDVNGDFVENEQQFIEAARKSINLTIKLQNTSGMSELIARVLEDDDRRASGAISTSALDFDELLRTTPRFNFLSGDHPIFRRYNKRLAQQRQAAALIAQRTAEAELQRQAEIKERLRKALEEEAAVQKKKEQEKAELQRMRAAQEPARFVPEEPFLKIIKDESSFGQVERELKKPETAAEPKVESKAEGAASEAITNTATGTSTTLSNDVAATISAEELLVLVGVPTETMETTTPALEDLAEAIALPSSENTATYVALPAEEYTLCSGERVVSVIKKRSGPIPAPPPGTPPVINKAAASRLSEPVKRVKPVEKMVRNCTPSNEQPYKSRHRSRSPRSRRRSERDHSSKECSRRHRRDEPSSHRHHKNSRDSKHRR", "soluble on expression in E. coli": "not soluble"},
      {"sequence": "SLESEGRSPIFTHLVTSLKGLWTLRAFGRQPYFETLFHKALNLHTANGGAMFSLIYKKTLKLSSRVLDKISIGQLVSLLSNNLNKFDEGGGGAINKIQDFLQKQEYKTLEYNLTTTEVVMENVTAFWEEGFGELFEKAKQNNNNRKTSNGDDSLFFSNFSLLGTPVLKDINFKIERGQLLAVAGSTGAGKTSLLMMIMGELEPSEGKIKHSGRISFCSQFSWIMPGTIKENIIFGVSYDEYRYRSVIKACQLEEDISKFAEKDNIVLGEGGITLSGGQRARISLARAVYKDADLYLLDSPFGYLDVLTEKEIFESCVCKLMANKTRILVTSKMEHLKKADKILILHEGSSYFYGTFSELQNLQPDFSSKLMG", "soluble on expression in E. coli": "soluble"},
      {"sequence": "ELVMTQSPKFMSTSVGDRVSVTCKASQNVGTHVAWYQQKPGQSPKTLIYSASYRYSGVPDRFTGSGSGTDFTLTIRDVQSEDAAEYFCQQYNLFPVTFGGGTKLEIKRTVAAPSVFIFPPSDEQLKSGTASVVCLLNNFYPREAAVAWKVDNALQSGNSQESVTEQDSADSTYSLSSTLTLSKADYEKHKVYACEVTHQGLSSPVTKSFNRGE", "soluble on expression in E. coli": "soluble"},
      {"sequence": "MNPFDMLSPGYQDIWLRLQSERLLLEKRISAKEGELKNLMQFVQNPPFLNFPQYMLPQGPLGAQNQ", "soluble on expression in E. coli": "not soluble"},
      {"sequence": "SLRECELYVQKHNIQALLKDSIVQLCTARPERPMAFLREYFEKLEKEEAK", "soluble on expression in E. coli": "soluble"},
      {"sequence": "MSLIQGKAIIIGGGPCGLSAAIHLKQIGIDALVIEKGNVVNSIYNYPTHQTFFSSSEKLEIGDVAFITENRKPVRIQALSYYREVVKRKNIRVNAFEMVRKVTKTQNNTFVIETSKETYTTPYCIIATGYYDHPNYMGVPGEDLPKVFHYFKEGHPYFDKDVVVIGGKNSSVDAALELVKSGARVTVLYRGNEYSPSIKPWILPEFEALVRNGTIRMEFGACVEKITENEVVFRSGEKELITIKNDFVFAMTGYHPDHQFLEKIGVEIDKETGRPFFNEETMETNVEGVFIAGVIAAGNNANEIFIENGRFHGGHIAAEIAKRENHEGHHHHHH", "soluble on expression in E. coli": "soluble"},
      {"sequence": "MSLEGDRGQDDVLRILVATDTHLGYKADDSERGGDSFETFQEILEIGRNLKVDFLLHGGDLFDENRPSRATLYRTFCLLRKFCFGDGAVSFEVLEGAAESRGRGEGFRFGLNYLDENINVCMPIFAMHGNHDDPGEQSHLSPLDLLEAAHLINYFGRCDATDEVTIKPILIKKGQTKVAIYGVGWIRDARLHRAFNNGKVRFLVPSASAGEDSVDDWFNIMVVHQNMYKGAFGGQPAKNCIHEQMLPDFLDLAIWGHEHDCHLDLRDAPQGTFRVLQPGSSIATSLVAGEALPKHVFLLEIRGENYRVTPQRLRTVRPLLFEDVALSDLLHSRPPLAPALSGVRTPQSRVSNSGAGRNLQTAQPAEDRDVWQLLTDAVEELLSRFAREEGHHHHHH", "soluble on expression in E. coli": "soluble"},
      {"sequence": "MSELRKLELERKKQKLAELKSQRKREEDARVQNLLRSTNENGTTQNGTSRQTLSSNEVEDILRQVGISTEPTVREESPAPPPGSHSDNHVDPSASHPRISNLLSVDLEFSSVQTACTDNKDSAIYSKGTQTDDERISVGEFSLGSQEFDYDDDMIMPMDHGQFRGRAHSHDQDSPLPYNEEIAKLLGQTKQGDKGLTRQETEEKKTQTVQIVPPLSDEEKYRLTLDPEFLDSFNRSCKVISRALNEEIDICINYTKDPYEKAIASDDLLHLAQVYQDETWTAKRLVTGMAFSEHYPDLLAVSYGPCDIPNEPPGVIVVWNTKSKRMTAEFIVYCQSEIQSVAFARFHAHLLLAGCESGQICVWDNRLTSRKLPINRSPLTTQAHTYTVSCLAVVGTKNAHNFVSLSRDGRICSWNVDNLTQPVDGKELMTKEGKAASATRMSFPIGEMQTFVVGTDTGEILAASRNGADPAVIKTDVCYKGHSGTLTGIEFHRASGVVDFSHLFISSSHDWTVKLWSTKDANLKFSFESHPDLVLDVAWSPVHPAVFASIDADGNIFVWNLNEDVEGPVARLRAGAEGESVYMNRLIWSPDGKHVFVGDDEGRVHMYDVRESLYVLKSEEWNRFARVLSDMKQSNEEAENYNM", "soluble on expression in E. coli": "not soluble"},
      {"sequence": "YAYKSNTYFKLKKKNIKLNGNIIKKSCKLGIPVALQNSLIAFSLIVLQKVVNGYGATFTTAFTVVSRIETLVQQPFMSLGAAVSTYTGQNIGAGLKDRVRKGFN", "soluble on expression in E. coli": "not soluble"},
      {"sequence": "MGSDKIHHHHHHMIIQSKLIRAALVCAAKNDVRYYLNGLHITPKHIEATNGSVALRMAHGIRTKKNIIVQFEGGVPAKAETTELIFSKEPIAVHRDQFQRRLSITGIKLVDGCFPDLDRIIPKKFDRCTHPVLQAGYLSYPEKMFGRERKFIPVQLRPSGDGQAVRIQFDSIINSMYGNPEFVVMPCRDHGDFNVAQEHPE", "soluble on expression in E. coli": "not soluble"},
      {"sequence": "GPASQHFLSTSVQGPWERAISPNKVPYYINHETQTTCWDHPKMTELYQSLADLNNVRFSAYRTAMKLRRLQKALCLDLLSLSAACDALDQHNLKQNDQPMDILQIINCLTTIYDRLEQEHNNLVNVPLCVDMCLNWLLNVYDTGRTGRIRVLSFKTGIISLCKAHLEDKYRYLFKQVASSTGFCDQRRLGLLLHDSIQIPRQLGEVASFGGSNIEPSVRSCFQFANNKPEIEAALFLDWMRLEPQSMVWLPVLHRVAAAET", "soluble on expression in E. coli": "soluble"},
      {"sequence": "MKEGMKVVLVGSPGIEGTWILAKDYDQLLLEKGISREIIEKAKEFKKDIVVQPKALSILDYVVAMHDATEGGIMQAMLEVAKASGYTVSINLDKIVLRRETKIITKALNIDPLRLISSGSFIAVSNTPEKILERISEAYIIGEIKRGDPVLEIK", "soluble on expression in E. coli": "soluble"}
    ]}
  ]
}
